We go through two sequences from article PMC11548252.

Data set [1] concerns the target SARS-CoV-2 Spike protein (SARS-CoV-2) (UniProt P0DTC2). Kind of data set: ligand-responsive LAMP, colorimetric (indirect). The note with it: 5'-phosphate.
For data set [2] the target is unchanged. As to the kind of experiment: fluorescence dequenching (Cy5/BHQ2).
Data set [3] shares this target. As to the kind of experiment: fluorescence dequenching (Cy5/BHQ2). The source holds these as a separate data set.

Read-outs that look alike come from different tables or passages of the source.

As to “CAGCACCGACCTTGTGCTTTGGGAGTGCTGGTCCAAGGGCGTTAATGGAC [EY615]”, the binding (% increase of Abs430/Abs560) in data set [1] is 81.
For “CAGCACCGACCTTGTGCTTTGGGAGTGCTGGTCCAAGGGCGTTAATGGAC [EY615QF]”, the binding (% fluorescence increase) in data set [2] came out at 31; in data set [3] it was 46.
